Laboratory results: the DeepSol protein solubility set

Test: soluble on expression in E. coli; label from the status in PepcDB or PDB records

Q: For “MISLFSPCHLSAALLISALSIVPTNAAPSPVSSPFTVNATVLTGCVLGGGATDSSNFGSINFGNITSLATAINATSGLNAGTITIQCNGNPSVTLALNSGANMTGNISAGRHLLNSSTGEYLLYQIYQNSPRTLIWGDGSNGGATQVIATDGTLQQVILYAQLFASNTQPTAGVYLDTLLVTVTY”, which “soluble on expression in E. coli” value is on record?
A: not soluble

Q: Which “soluble on expression in E. coli” value does the source give for “MITLHTNFGDIKIQLNFEKAPVTSANFEQYCREGFYDNTLFHRVIDGFMIQGGGMTSGLREKETRDPIRNEANNGLSNKVGTIAMARTMDPHSASSQFFINVNNNTFLDFRSESRDGWGYCVFGEVVEGMDIVNKIKGVSTGSYGMHQDVPLEEVVITGTTIEA” here?
A: not soluble

Q: For “MIVHVVKRGETLWQLAQRYGVPLERIVAANELSDPNRLAVGQALVIPVPYRYHTVRTGETLWQIARQYGVAVEAIIQANRITNPSLLYPGTTLFIPARIHTVRSGETLAQIASFYGVTVQQLIEVNDITDPNRIVPGQRLIIPPAKPLIEVNAFTVDQGEKGAEQVREVGRHLTYAAPFAYTIRADGGLNPINDTAFIQAAYAARVVPMMTITNFTYQDPGSRLAQMILADVALQTRLLDNVIQVMRAKGYRTLNVDFENVYPSDRKRYNEFLQRAANRLHAEGYVLSTSLAPKISAEQKGLLYEAHDYPAHGRIADFVVLMTYEWGYRFGPPQAISPVNQIRRVLDYAVTAIPRSKIMMGFQIYARDWVLPHVQGQEAETFSPKEALERAVRYGASIQYDAAAASPFYRYTDEQGRQHEVWFEDARSALAKFELVKEYGLRGISYWVLGYPYPENWVLLEDNFRIRKRG”, which “soluble on expression in E. coli” value is on record?
A: not soluble

Q: For “MIVLALDVYEGERAIKIAKSVKDYISMIKVNWPLILGSGVDIIRRLKEETGVEIIADLKLADIPNTNRLIARKVFGAGADYVIVHTFVGRDSVMAVKELGEIIMVVEMSHPGALEFINPLTDRFIEVANEIEPFGVIAPGTRPERIGYIRDRLKEGIKILAPGIGAQGGKAKDAVKAGADYIIVGRAIYNAPNPREAAKAIYDEIRGV”, which “soluble on expression in E. coli” value is on record?
A: soluble

Q: Which “soluble on expression in E. coli” value does the source give for “MIVLNCIRYLGMTDINEIGRLTLYEYDLLMTGKALAAVDESHKAHKQAWINHQVTATKLVGGKKNKKEVPVYKKFKDFFDYEEEIRKITQEIDEGYDKKGMDLLLKANL” here?
A: not soluble

Q: With “MIVSWRHKGLKAFFETGSSSGIRADHSKRLAHVLAVLNRARTPANVNMPGWRLHPLKGELEGFWSITINANWRIIFRFFDTDVELVDYLDYH” as the sequence, how does the “soluble on expression in E. coli” value read?
A: not soluble

Q: For “MIYGILSKNLGMPTPTFLVCPDVVKFENVGQIAVVNGMVYLGGSVGIDKSGTLHKGLEEQTRQTFDNIRKCLEYANSGLDYIVSLNIFLSTSLSDSEEARFNELYREVFCVPATRPCRCCVRAQLQEGLLVEVVNVVAAQK”, which “soluble on expression in E. coli” value is on record?
A: soluble

Q: For “MIYLKSFERNIRLINMKVVYDDVRVLKDIIQALARLVDEAVLKFKQDSVELVALDRAHISLISVNLPREMFKEYDVNDEFKFGFNTQYLMKILKVAKRKEAIEIASESPDSVIINIIGSTNREFNVRNLEVSEQEIPEINLQFDISATISSDGFKSAISEVSTVTDNVVVEGHEDRILIKAEGESEVEVEFSKDTGGLQDLEFSKESKNSYSAEYLDDVLSLTKLSDYVKISFGNQKPLQLFFNMEGGGKVTYLLAPKV”, which “soluble on expression in E. coli” value is on record?
A: soluble

Q: Which “soluble on expression in E. coli” value does the source give for “MKAAAKRISDGVYWTGVLDWDLRNYHGYTLQGTTYNAYLVCGDEGVALIDNSYPGTFDELMARVEDALQQVGMERVDYIIQNHVEKDHSGVLVELHRRFPEAPIYCTEVAVKGLLKHYPSLREAEFMTVKTGDVLDLGGKTLTFLETPLLHWPDSMFTLLDEDGILFSNDAFGQHLCCPQRLDREIPEYILMDAARKFYANLITPLSKLVLKKFDEVKELGLLERIQMIAPSHGQIWTDPMKIIEAYTGWATGMVDERVTVIYDTMHGSTRKMAHAIAEGAMSEGVDVRVYCLHEDDRSEIVKDILESGAIALGAPTIYDEPYPSVGDLLMYLRGLKFNRTLTRKALVFGSMGGNGGATGTMKELLAEAGFDVACEEEVYYVPTGDELDACFEAGRKLAAEIRR” here?
A: soluble

Q: With “MKAESSNESFIIGQRVHSLNDSRRVGTVKYVGDVEGYSGTWIGVDWDQDGDGKHNGSVNGVFYFNGRSQSSASFVRSQNLSRGITLLQALELRYRTISTKDEEDEMYVLSAGNRRVSIQLLGGDKIQDKLSRFEELTSASLSYLGVSSLGVSSDLGSILPNLKLLDLTGNLISDWEEIGALCEQLPALTTLNLSCNSLSSDIKSLPQLKNIRVLVLNNSGLSWTQVEILRRSLPGIEELHLMGNMISTITSTSSSDDQAFNSLRLLNLDDNCISDWSEVLKLSQLPCLEQLYLNKNKLSRIFQSVNGTESSEKGSDPFPSLSCLLLGANNIGDLASVDALNGFPQLVDIRLSENPISDPVRGGVPRFVLVARLTKVQVLNGSEVRAREKKDSEIRYVRMVMSKLNDKSGEIELLHPRFYELKKLHGIEDERASAENSGPKNIASGLISITLKCVGPSMGEKPHLTKKLPGSITVGKLKILSENFFKLKSIKPRLFLQEEGSPFPTALDDETATLLDVGICDGSTLLVDEES” as the sequence, how does the “soluble on expression in E. coli” value read?
A: soluble

Q: Which “soluble on expression in E. coli” value does the source give for “MKAIISYETPLEQAHFTAKNDEKNMFYKENTEESVEGSLQYDVLDAVGEFKGQPGYIVCNNISVTDEGRPVFENRFKNRAGLIENEPGFQAIRVLRPLSNDTYVILTMWETEQNFKDWTESRSFENAHKKRPVQAEGQAPAHPHAEQQKSIFSRPSFVTTFDVLV” here?
A: not soluble

Q: For “MKAIIVKPPNAGVQVKDVDEKKLDSYGKIKIRTIYNGICGADREIVNGKLTLSTLPKGKDFLVLGHEAIGVVEESYHGFSQGDLVMPVNRRGCGICRNCLVGRPDFCETGEFGEAGIHKMDGFMREWWYDDPKYLVKIPKSIEDIGILAQPLADIEKSIEEILEVQKRVPVWTCDDGTLNCRKVLVVGTGPIGVLFTLLFRTYGLEVWMANRREPTEVEQTVIEETKTNYYNSSNGYDKLKDSVGKFDVIIDATGADVNILGNVIPLLGRNGVLGLFGFSTSGSVPLDYKTLQEIVHTNKTIIGLVNGQKPHFQQAVVHLASWKTLYPKAAKMLITKTVSINDEKELLKVLREKEHGEIKIRILWE”, which “soluble on expression in E. coli” value is on record?
A: soluble

Q: For “MKALKLYGVEDLRYEDNEKPVIESANDVIVKVRATGICGSDTSRYKKMGPYIKGMPFGHEFSGVVDAIGSDVTHVNVGDKVTGCPAIPCYQCEYCLKGEYARCEKLFVIGSYEPGSFAEYVKLPAQNVLKVPDNVDYIEAAMVEPSAVVAHGFYKSNIQPGMTVAVMGCGSIGLLAIQWARIFGAAHIIAIDIDAHKLDIATSLGAHQTINSKEENLEKFIENHYANQIDLAIESSGAKVTIGQILTLPKKGGEVVLLGIPYDDIEIDRVHFEKILRNELTVCGSWNCLSSNFPGKEWTATLHYMKTKDINVKPIISHFLPLEKGPETFDKLVNKKERFDKVMFTIY”, which “soluble on expression in E. coli” value is on record?
A: not soluble

Q: Which “soluble on expression in E. coli” value does the source give for “MKANRVNIKQAITEGETSLGIEFGSTRIKAVLIDSSFETIASGSYEWENLLEDGFWTYNLVDIITGLRTAYSEMKNEVERNYGITIRKIGSIGISAMMHGYMAFDKTGELLVPFRTWRNSTTGAAAKELTDQFQFNIPERWSIAHLYQAILNEEKHLPRIDYITTLAGYIHWLLTGNKAIGIGDASGMFPIDESTQNYNESMVKQFDELISNKGYPWKLKDILPKVYISGEQAGELTEIGAKILDQSKNLQPGIPICPPEGDAGTGMVATNSVRKRTGNISVGTSVFAMIVLEKELSKVYPEIDLVTTPNGSPVGMVHANNCSSDINAWLGLFREFFEAMGQKIETNKLFEVMLNKALEADSDGGGLLSYGYFSGENITGLEKGRPLFVRSPESRFNLANFMRTHLFTAFAALKIGMDILTKEEKIEIDSILAHGGLFKTPLVGQKIVAAAMNTPVSVMETAGEGGAWGMAILASYMMNKGQEESLEDFLDKKVFEEDAGQEIYPDQLDVEGFEAFIERYKKGLMIEQAAVDHLILEHHHHHH” here?
A: soluble

Q: Which “soluble on expression in E. coli” value does the source give for “MKAYAKKRISYMPSSPSQNVINFEEIETQKENILPLKEGRSAAALSKAIHQPLVEINQVKSSFEQRLIDELPALSDPITLYLEYIKWLNNAYPQGGNSKQSGMLTLLERCLSHLKDLERYRNDVRFLKIWFWYIELFTRNSFMESRDIFMYMLRNGIGSELASFYEEFTNLLIQKEKFQYAVKILQLGIKNKARPNKVLEDRLNHLLRELGENNIQLGNEISMDSLESTVLGKTRSEFVNRLELANQNGTSSDVNLTKNNVFVDGEESDVELFETPNRGVYRDGWENFDLKAERNKENNLRISLLEANTNLGELKQHEMLSQKKRPYDEKLPIFRDSIGRSDPVYQMINTKDQKPEKIDCNFKLIYCEDEESKGGRLEFSLEEVLAISRNVYKRVRTNRKHPREANLGQEESANQKEAEAQSKRPKISRKALVSKSLTPSNQGRMFSGEEYINCPMTPKGRSTETSDIISAVKPRQLTPILEMRESNSFSQSKNSEIISDDDKSSSSFISYPPQR” here?
A: soluble
